Sequences and labels used below:
B1: TPD52L1 (parent)
chain: ISKKFGDMSYSIRHSISMPAMRNS
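Note: lentivirally expressed fusions sorted by FACS into six bins by GFP to DsRed ratio, PSI derived from sequencing read proportions per bin multiplied by bin number.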

The series covers variants of B1. As to the kind of experiment: protein stability index of a GFP-peptide fusion (GPS, HEK-293T) (PSI 1-6); higher = more stable. Particulars: c terminus: a fixed tail appended.
With ISKKFGDMSYSIRHSWSMPAMRNS [I16W], the protein stability index was 1.97.

Turning to ISKKFGDMSYSIRHSRSMPAMRNS [I16R], the protein stability index is 2.81.

Consider ISKKFGDMSYSIRHSFSMPAMRNS [I16F], for which the protein stability index is 1.61.

ISKKFGDMSYSIRHSASMPAMRNS [I16A]: the protein stability index was 2.76.

Turning to ISKKFGDMSYSIRHSLSMPAMRNS [I16L], the protein stability index is 2.46.

In the case of ISKKFGDMSYSIRHSSSMPAMRNS [I16S], the protein stability index was found to be 2.77.

For the variant ISKKFGDMSYSIRHSGSMPAMRNS [I16G], the protein stability index came to 2.51.

Regarding ISKKFGDMSYSIRHSDSMPAMRNS [I16D], the protein stability index was found to be 2.6.

Take ISKKFGQMSYSIRHSISMPAMRNS [D7Q]: the protein stability index is 2.04.

On to ISKKFGSMSYSIRHSISMPAMRNS [D7S], for which the protein stability index was 2.34.

Consider ISKKFGEMSYSIRHSISMPAMRNS [D7E], for which the protein stability index stood at 2.22.

Consider ISKKFGNMSYSIRHSISMPAMRNS [D7N], for which the protein stability index was found to be 1.67.

Regarding ISKKFGDMSYSIMHSISMPAMRNS [R13M], the protein stability index worked out at 1.89.

Consider ISKKFGDMSYSIDHSISMPAMRNS [R13D], for which the protein stability index was determined as 2.49.

As for ISKKFGDMSYSIIHSISMPAMRNS [R13I], the protein stability index was found to be 1.64.

Consider ISKKFGDMSYSITHSISMPAMRNS [R13T], for which the protein stability index amounted to 2.01.

Turning to ISKKFGDMSYSISHSISMPAMRNS [R13S], the protein stability index is 2.02.

As to ISKKFGDMSYSIEHSISMPAMRNS [R13E], the protein stability index worked out at 2.48.

Turning to ISKKFGDMSYSIVHSISMPAMRNS [R13V], the protein stability index came out at 2.6.

As for ISKKFGDMSYSIQHSISMPAMRNS [R13Q], the protein stability index is 2.05.

For the variant ISKKFGDMSYSIAHSISMPAMRNS [R13A], the protein stability index is 2.21.

As for ISKKFGDMSYSIKHSISMPAMRNS [R13K], the protein stability index came to 2.14.

Regarding ISKKFGDMSYSIRLSISMPAMRNS [H14L], the protein stability index worked out at 3.05.

Regarding ISKKFGDMSYSIRFSISMPAMRNS [H14F], the protein stability index was 2.49.

Take ISKKFGDMSYSIRASISMPAMRNS [H14A]: the protein stability index was 2.15.

For the variant ISKKFGDMSYSIRNSISMPAMRNS [H14N], the protein stability index turned out to be 2.38.

In the case of ISKKFGDMSYSIRPSISMPAMRNS [H14P], the protein stability index came out at 2.56.

For the variant ISKKFGDMSDSIRHSISMPAMRNS [Y10D], the protein stability index came out at 2.98.

For ISKKFGDMSKSIRHSISMPAMRNS [Y10K], the protein stability index is 2.57.

On to ISKKFGDMSCSIRHSISMPAMRNS [Y10C], for which the protein stability index turned out to be 2.17.

As to ISKKFGDMSQSIRHSISMPAMRNS [Y10Q], the protein stability index was 2.76.

Turning to ISKKFGDMSSSIRHSISMPAMRNS [Y10S], the protein stability index is 2.84.

Regarding ISKKFGDMSMSIRHSISMPAMRNS [Y10M], the protein stability index was 2.37.

In the case of ISKKFGDMSVSIRHSISMPAMRNS [Y10V], the protein stability index was 2.94.

Consider ISKKFGDMSGSIRHSISMPAMRNS [Y10G], for which the protein stability index came to 3.06.

With ISKKFGDMSLSIRHSISMPAMRNS [Y10L], the protein stability index worked out at 1.88.

Turning to ISKKFGDMSTSIRHSISMPAMRNS [Y10T], the protein stability index was determined as 2.72.

On to ISKKFGDMSYSIRHSISMLAMRNS [P19L], for which the protein stability index amounted to 2.35.

In the case of ISKKFGDMSYSIRHSISMQAMRNS [P19Q], the protein stability index was 2.33.

ISKKFGDMSYSIRHSISMMAMRNS [P19M]: the protein stability index stood at 2.58.

Regarding ISKKFGDMSYSIRHSISMGAMRNS [P19G], the protein stability index worked out at 2.6.

In the case of ISKKFGDMSYSIRHSISMCAMRNS [P19C], the protein stability index was 1.76.

As for ISKKFGDMSYSIRHSISMNAMRNS [P19N], the protein stability index was 2.04.

In the case of ISKKFGDMSYSIRHSISMTAMRNS [P19T], the protein stability index was found to be 2.17.

For the variant ISKKFGDMSYSIRHSISMIAMRNS [P19I], the protein stability index is 2.6.

As for ISKKFGDMSYSIRHSISMAAMRNS [P19A], the protein stability index came out at 1.98.

HSKKFGDMSYSIRHSISMPAMRNS [I1H]: the protein stability index was determined as 2.42.

In the case of KSKKFGDMSYSIRHSISMPAMRNS [I1K], the protein stability index turned out to be 2.17.

Consider TSKKFGDMSYSIRHSISMPAMRNS [I1T], for which the protein stability index came to 2.9.

With GSKKFGDMSYSIRHSISMPAMRNS [I1G], the protein stability index turned out to be 2.65.

As for WSKKFGDMSYSIRHSISMPAMRNS [I1W], the protein stability index was 2.2.

Regarding NSKKFGDMSYSIRHSISMPAMRNS [I1N], the protein stability index is 2.87.

Consider LSKKFGDMSYSIRHSISMPAMRNS [I1L], for which the protein stability index was 2.23.

Regarding VSKKFGDMSYSIRHSISMPAMRNS [I1V], the protein stability index was 3.17.

Take ASKKFGDMSYSIRHSISMPAMRNS [I1A]: the protein stability index worked out at 2.58.

Regarding PSKKFGDMSYSIRHSISMPAMRNS [I1P], the protein stability index was 2.89.

For the variant SSKKFGDMSYSIRHSISMPAMRNS [I1S], the protein stability index was found to be 3.16.

For the variant ITKKFGDMSYSIRHSISMPAMRNS [S2T], the protein stability index came out at 2.21.

In the case of IQKKFGDMSYSIRHSISMPAMRNS [S2Q], the protein stability index worked out at 2.37.

For IEKKFGDMSYSIRHSISMPAMRNS [S2E], the protein stability index was 2.83.

For the variant IAKKFGDMSYSIRHSISMPAMRNS [S2A], the protein stability index worked out at 2.41.

As for IDKKFGDMSYSIRHSISMPAMRNS [S2D], the protein stability index is 2.94.

Take IKKKFGDMSYSIRHSISMPAMRNS [S2K]: the protein stability index was found to be 2.74.

As for IHKKFGDMSYSIRHSISMPAMRNS [S2H], the protein stability index turned out to be 2.11.

INKKFGDMSYSIRHSISMPAMRNS [S2N]: the protein stability index was 2.37.

For the variant IWKKFGDMSYSIRHSISMPAMRNS [S2W], the protein stability index was 1.83.

As for IYKKFGDMSYSIRHSISMPAMRNS [S2Y], the protein stability index is 1.74.

Turning to ISKKFGDMSYSIRHSISMPAMRIS [N23I], the protein stability index is 1.77.

Turning to ISKKFGDMSYSIRHSISMPAMRQS [N23Q], the protein stability index stood at 2.29.

In the case of ISKKFGDMSYSIRHSISMPAMRDS [N23D], the protein stability index was 2.32.

As to ISKKFGDMSYSIRHSISMPAMRTS [N23T], the protein stability index is 2.31.

As for ISKKFGDMSYSIRHSISMPAMRVS [N23V], the protein stability index was found to be 1.84.

As to ISKKFGDMSYSIRHSISMPAMRFS [N23F], the protein stability index is 1.84.

Regarding ISKKFGDMSYSIRHSISMPAMRES [N23E], the protein stability index was found to be 2.28.

Turning to ISKKFGDMSYSIRHSISMPAMRCS [N23C], the protein stability index was 1.91.

For the variant ISKKFGDMSYSIRHSISMPAMRHS [N23H], the protein stability index is 2.19.

As to ISKKFGDMSYSIRHSISMPAMRLS [N23L], the protein stability index amounted to 1.98.

With ISKKFFDMSYSIRHSISMPAMRNS [G6F], the protein stability index was found to be 1.97.

For ISKKFSDMSYSIRHSISMPAMRNS [G6S], the protein stability index is 2.24.

Take ISKKFDDMSYSIRHSISMPAMRNS [G6D]: the protein stability index amounted to 2.28.

As for ISKKFHDMSYSIRHSISMPAMRNS [G6H], the protein stability index worked out at 1.88.

For the variant ISKKFCDMSYSIRHSISMPAMRNS [G6C], the protein stability index was determined as 1.98.

ISKKFIDMSYSIRHSISMPAMRNS [G6I]: the protein stability index was found to be 1.6.

Take ISKKFTDMSYSIRHSISMPAMRNS [G6T]: the protein stability index was 2.62.

For the variant ISKKFQDMSYSIRHSISMPAMRNS [G6Q], the protein stability index stood at 2.19.

ISAKFGDMSYSIRHSISMPAMRNS [K3A]: the protein stability index was determined as 1.57.

Turning to ISWKFGDMSYSIRHSISMPAMRNS [K3W], the protein stability index worked out at 3.69.

Consider ISRKFGDMSYSIRHSISMPAMRNS [K3R], for which the protein stability index stood at 2.16.

For ISYKFGDMSYSIRHSISMPAMRNS [K3Y], the protein stability index came to 2.8.

For ISFKFGDMSYSIRHSISMPAMRNS [K3F], the protein stability index amounted to 4.67.

For ISTKFGDMSYSIRHSISMPAMRNS [K3T], the protein stability index amounted to 2.19.

Regarding ISGKFGDMSYSIRHSISMPAMRNS [K3G], the protein stability index was determined as 2.25.

As to ISKKFGDMSYSIRHSISGPAMRNS [M18G], the protein stability index stood at 2.42.

Take ISKKFGDMSYSIRHSISHPAMRNS [M18H]: the protein stability index was determined as 2.6.
